Test results taken from patent publication US20050014242.

What was measured:
[1] = tested on: CFEK2-prostasin-6×HIS (purified zymogen, not digested with EK)
[2] = tested on: PFEK1-neuropsin-6×HIS (purified zymogen, not digested with EK)
[3] = tested on: PFEK1-protease MH2-6×HIS (purified zymogen, not digested with EK)
[4] = tested on: PFEK1-protease O-6×HIS (purified zymogen, not digested with EK)
[5] = tested on: PFEK2-prostasin-6×HIS (purified zymogen, not digested with EK)
[6] = tested on: PFEK2-protease F-6×HIS (purified zymogen, not digested with EK)
Chain of PFEK2-protease F-6×HIS (purified zymogen, not digested with EK) (chain, as listed by the source): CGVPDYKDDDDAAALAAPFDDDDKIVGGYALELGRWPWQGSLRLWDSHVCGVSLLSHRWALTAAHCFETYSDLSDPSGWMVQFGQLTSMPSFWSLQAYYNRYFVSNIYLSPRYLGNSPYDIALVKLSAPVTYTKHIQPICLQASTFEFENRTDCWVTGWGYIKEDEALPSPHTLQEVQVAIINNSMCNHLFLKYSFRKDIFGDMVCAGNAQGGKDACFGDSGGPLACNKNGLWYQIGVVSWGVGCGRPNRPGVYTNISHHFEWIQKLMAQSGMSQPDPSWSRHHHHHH

Chain of PFEK1-protease MH2-6×HIS (purified zymogen, not digested with EK) (chain, as listed by the source): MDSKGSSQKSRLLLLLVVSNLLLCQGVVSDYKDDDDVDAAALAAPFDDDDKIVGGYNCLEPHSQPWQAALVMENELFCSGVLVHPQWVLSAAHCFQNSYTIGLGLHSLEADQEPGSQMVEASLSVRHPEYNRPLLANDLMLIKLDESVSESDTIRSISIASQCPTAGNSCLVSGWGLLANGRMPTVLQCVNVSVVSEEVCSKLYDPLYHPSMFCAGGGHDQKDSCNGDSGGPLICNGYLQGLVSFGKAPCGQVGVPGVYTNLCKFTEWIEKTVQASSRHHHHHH

Question: enterokinase was tested. Which “cleavage of the zymogen (SDS-PAGE and anti-FLAG Western blot)” value (shortened to “cleavage of the zymogen”) [1] did it give?
Answer: quantitative cleavage of the expressed and purified zymogen to generate the processed and activated protease

Question: And the “cleavage of the zymogen” value [2]?
Answer: quantitative cleavage of the expressed and purified zymogen to generate the processed and activated protease

Question: What about the “cleavage of the zymogen” value [3] of the same substance?
Answer: quantitative cleavage of the expressed and purified zymogen to generate the processed and activated protease

Question: And the “cleavage of the zymogen” value [4]?
Answer: quantitative cleavage of the expressed and purified zymogen to generate the processed and activated protease

Question: And the “cleavage of the zymogen” value [5]?
Answer: quantitative cleavage of the expressed and purified zymogen to generate the processed and activated protease

Question: And the “cleavage of the zymogen” value [6]?
Answer: quantitative cleavage of the expressed and purified zymogen to generate the processed and activated protease
